Results: US20050054024

Test system: T1, 7-nitrobenz-2-oxa-1,3-diazole (NBD)-NH-Ser-Phe-Arg4-Lys-amide 2
T1 sequence: SFRRRRK

Substance: recombinant human protein kinase C γ
- Km (Fluorescence assay): 30 µM
- Km (Radioactive assay): 5 µM
- kcat (Fluorescence assay): 3.17 s⁻¹
- kcat (Radioactive assay): 3.5 s⁻¹
- kcat/Km (Fluorescence assay): 105000 M⁻¹ s⁻¹
- kcat/Km (Radioactive assay): 700000 M⁻¹ s⁻¹
